Patent US20200016266A1

Target: recombinant extracellular domain of human VEGFR2 (rhVEGFR2), expressed in human cells (Sino Biological Inc.) (human) (UniProt P35968)
Test: FRET fluorescence spectroscopy, 0.5 µM 488-VEGFR2 titrated with 594-Gal1, emission at 518 nm

Chain of recombinant extracellular domain of human VEGFR2 (rhVEGFR2), expressed in human cells (Sino Biological Inc.) (human) (P35968 20-764 limits assumed): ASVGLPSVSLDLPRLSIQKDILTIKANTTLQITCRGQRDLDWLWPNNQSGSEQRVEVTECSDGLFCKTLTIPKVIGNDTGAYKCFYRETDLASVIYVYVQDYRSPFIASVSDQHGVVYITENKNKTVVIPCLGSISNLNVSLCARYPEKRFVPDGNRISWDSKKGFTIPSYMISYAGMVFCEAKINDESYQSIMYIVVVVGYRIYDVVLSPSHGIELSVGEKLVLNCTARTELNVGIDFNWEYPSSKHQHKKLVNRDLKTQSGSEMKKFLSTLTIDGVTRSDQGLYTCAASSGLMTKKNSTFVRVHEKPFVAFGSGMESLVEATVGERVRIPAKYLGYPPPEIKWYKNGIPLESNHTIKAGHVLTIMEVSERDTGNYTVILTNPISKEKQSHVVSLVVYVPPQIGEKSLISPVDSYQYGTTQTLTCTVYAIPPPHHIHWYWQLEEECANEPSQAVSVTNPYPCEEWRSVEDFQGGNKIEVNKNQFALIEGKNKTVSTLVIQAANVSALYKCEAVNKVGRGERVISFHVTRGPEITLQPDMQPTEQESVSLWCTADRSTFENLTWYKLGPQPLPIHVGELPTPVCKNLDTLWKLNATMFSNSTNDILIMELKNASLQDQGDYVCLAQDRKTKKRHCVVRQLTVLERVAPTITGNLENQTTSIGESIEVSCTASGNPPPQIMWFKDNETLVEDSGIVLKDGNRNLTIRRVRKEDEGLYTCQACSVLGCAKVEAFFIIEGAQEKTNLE

EC50 (read off the curve): 7 µM
Substance: Galectin-1 (human recombinant Gal1) (from UniProt P09382 2-135) (ligand)
